Reference: patent publication EP2717940B1
Each block holds one substance with its values, some of them ahead of it.

Legend:
[1] = biological target: chemokine (C-C motif) receptor 5 (CCR5) (human) (UniProt P51681); assay: cell-based or functional assay
[2] = biological target: chemokine (C-C motif) receptor 5 (CCR5) (human) (UniProt P51681); assay: in vitro depletion: blood of a healthy donor passed through a column with biotinylated RANTES coupled matrix, flow cytometry for CCR1, 3 or 5-expressing cells
[3] = biological target: T1, chemokine (C-C motif) receptor 1 (CCR1) (human) (UniProt P32246); assay: as above
T1 sequence (looked up): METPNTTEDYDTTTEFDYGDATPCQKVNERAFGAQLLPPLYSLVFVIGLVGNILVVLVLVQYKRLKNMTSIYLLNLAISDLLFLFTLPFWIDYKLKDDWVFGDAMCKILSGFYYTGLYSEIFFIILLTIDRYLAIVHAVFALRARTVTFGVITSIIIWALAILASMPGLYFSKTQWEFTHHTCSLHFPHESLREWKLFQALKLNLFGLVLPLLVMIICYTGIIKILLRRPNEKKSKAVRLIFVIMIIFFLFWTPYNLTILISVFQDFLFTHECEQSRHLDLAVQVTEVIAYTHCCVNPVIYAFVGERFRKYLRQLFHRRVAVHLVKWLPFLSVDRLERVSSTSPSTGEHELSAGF

[4] = biological target: T2, chemokine (C-C motif) receptor 3 (CCR3) (human) (UniProt P51677); assay: as above
T2 sequence (looked up): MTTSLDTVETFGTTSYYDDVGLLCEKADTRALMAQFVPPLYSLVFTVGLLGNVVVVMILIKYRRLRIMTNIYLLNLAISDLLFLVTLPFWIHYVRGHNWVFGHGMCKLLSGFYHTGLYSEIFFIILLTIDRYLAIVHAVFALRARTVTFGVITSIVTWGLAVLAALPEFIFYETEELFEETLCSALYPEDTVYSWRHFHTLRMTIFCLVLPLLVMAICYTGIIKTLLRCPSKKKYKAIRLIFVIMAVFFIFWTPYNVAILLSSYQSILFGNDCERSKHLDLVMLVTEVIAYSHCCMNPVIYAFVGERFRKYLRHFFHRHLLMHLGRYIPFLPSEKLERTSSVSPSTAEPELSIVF

[5] = biological target: chemokine (C-C motif) receptor 2 (CCR2) on peripheral blood cells (human) (UniProt P41597); assay: flow cytometry, biotinylated chemokine (1 µM) on blood cells of adiposis dolorosa patients, CD19 positive cells, detected with fluorophore conjugated streptavidin
[6] = biological target: chemokine (C-C motif) receptor 2 (CCR2) on peripheral blood cells (human) (UniProt P41597); assay: in vitro depletion: blood of three healthy donors passed through a column with bMCP-1 coupled streptavidin Sepharose matrix, flow cytometry before and after
hCCR2b (human) = hCCR2b (human) (UniProt P41597); assay: cell-based or functional assay
hCCR2b (human), sequence (P41597 other isoform, or with tags, fused parts or gaps): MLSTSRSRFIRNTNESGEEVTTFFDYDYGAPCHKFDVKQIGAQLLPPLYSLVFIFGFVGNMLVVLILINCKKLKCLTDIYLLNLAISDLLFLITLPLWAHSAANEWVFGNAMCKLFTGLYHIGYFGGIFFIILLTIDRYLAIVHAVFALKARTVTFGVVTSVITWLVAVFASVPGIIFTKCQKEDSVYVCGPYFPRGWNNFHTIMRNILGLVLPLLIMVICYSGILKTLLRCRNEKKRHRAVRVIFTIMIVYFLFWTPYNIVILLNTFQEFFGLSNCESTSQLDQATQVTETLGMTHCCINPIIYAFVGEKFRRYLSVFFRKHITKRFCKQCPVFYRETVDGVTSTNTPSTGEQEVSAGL

UniProt P13501, sequence (P13501 other isoform, or with tags, fused parts or gaps): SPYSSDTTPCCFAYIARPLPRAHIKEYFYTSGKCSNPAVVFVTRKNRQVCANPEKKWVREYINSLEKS
chemokine (C-C motif) receptor 2 (CCR2) on peripheral blood cells (human), sequence (P41597 whole entry): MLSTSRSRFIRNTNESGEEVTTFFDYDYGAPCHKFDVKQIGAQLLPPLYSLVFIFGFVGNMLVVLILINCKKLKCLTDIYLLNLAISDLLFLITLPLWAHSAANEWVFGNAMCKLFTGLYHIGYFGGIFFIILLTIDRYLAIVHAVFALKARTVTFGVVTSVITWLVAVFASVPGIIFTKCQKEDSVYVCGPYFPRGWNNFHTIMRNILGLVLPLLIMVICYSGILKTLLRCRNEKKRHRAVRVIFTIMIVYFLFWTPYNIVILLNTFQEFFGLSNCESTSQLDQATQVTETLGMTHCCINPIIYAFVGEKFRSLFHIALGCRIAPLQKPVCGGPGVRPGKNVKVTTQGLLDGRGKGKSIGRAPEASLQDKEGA
chemokine (C-C motif) receptor 5 (CCR5) (human), sequence (P51681 whole entry): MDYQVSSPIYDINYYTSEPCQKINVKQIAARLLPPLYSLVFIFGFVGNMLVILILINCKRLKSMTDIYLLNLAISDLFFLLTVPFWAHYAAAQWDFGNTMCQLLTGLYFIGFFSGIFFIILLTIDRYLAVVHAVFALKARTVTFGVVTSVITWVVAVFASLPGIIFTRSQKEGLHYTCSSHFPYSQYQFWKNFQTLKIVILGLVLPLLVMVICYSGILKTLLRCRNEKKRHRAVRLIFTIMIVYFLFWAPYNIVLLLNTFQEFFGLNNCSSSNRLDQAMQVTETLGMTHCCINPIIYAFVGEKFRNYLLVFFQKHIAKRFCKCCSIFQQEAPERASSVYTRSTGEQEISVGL

EC50, agonist activity in an Aequorin assay [1]: 0.5 nM
reduction of chemokine receptor-expressing cells by the column [2]: 20%
reduction of chemokine receptor-expressing cells by the column [3]: 20%
reduction of chemokine receptor-expressing cells by the column [4]: 20%
Substance: biotinRANTES (CCL5): RANTES derivatised at the ε-amino side chain functionality of Lys(67) with Biotin (TFA salt) (from UniProt P13501 24-91) (ligand)

percent of B cells that bind [5]: 65%
remaining levels of monocytes after column passage [6]: 20 to 30%
Substance: biotinylated MCP1 (bMCP1) (from UniProt P13500 24-99) (ligand)

EC50, agonist activity in an Aequorin assay (hCCR2b (human)): 3.1 nM
Substance: recombinant native MCP-1 (from UniProt P13500 24-99) (ligand)

EC50, activity (partial agonist) in an Aequorin assay (hCCR2b (human)): 23.5 nM
Substance: recombinant native MCP-2 (from UniProt P80075 24-99) (ligand)
